Holding throughout (conditions): both partners purified
Assay [1] deals with T1, Truncated human primosome (Pol α: 334-1462; B subunit: 149-598; PriS: 1-420; PriL: 1-509) (human, UniProt P09884 334-1462; Q14181 149-598; P49642 1-420; P49643 1-509).
T1 construct: also called truncated primosome; Pol α - primase
Put plainly: pull-down.

Assay [2] addresses T2, Full-length human primosome (Pol α: 1-1462; B subunit: 1-598; PriS: 1-420; PriL: 1-509) (human, UniProt P09884 1-1462; Q14181 1-598; P49642 1-420; P49643 1-509).
T2 construct: also called DNA polymerase α - primase complex; Pol α - primase
Put plainly: pull-down.

Assay [3] addresses T3, Pol α catalytic subunit (334-1462), as in the truncated human primosome (human, UniProt P09884 334-1462).
T3 construct: also called DNA polymerase α; catalytic subunit of Pol α
T3 sequence (looked up): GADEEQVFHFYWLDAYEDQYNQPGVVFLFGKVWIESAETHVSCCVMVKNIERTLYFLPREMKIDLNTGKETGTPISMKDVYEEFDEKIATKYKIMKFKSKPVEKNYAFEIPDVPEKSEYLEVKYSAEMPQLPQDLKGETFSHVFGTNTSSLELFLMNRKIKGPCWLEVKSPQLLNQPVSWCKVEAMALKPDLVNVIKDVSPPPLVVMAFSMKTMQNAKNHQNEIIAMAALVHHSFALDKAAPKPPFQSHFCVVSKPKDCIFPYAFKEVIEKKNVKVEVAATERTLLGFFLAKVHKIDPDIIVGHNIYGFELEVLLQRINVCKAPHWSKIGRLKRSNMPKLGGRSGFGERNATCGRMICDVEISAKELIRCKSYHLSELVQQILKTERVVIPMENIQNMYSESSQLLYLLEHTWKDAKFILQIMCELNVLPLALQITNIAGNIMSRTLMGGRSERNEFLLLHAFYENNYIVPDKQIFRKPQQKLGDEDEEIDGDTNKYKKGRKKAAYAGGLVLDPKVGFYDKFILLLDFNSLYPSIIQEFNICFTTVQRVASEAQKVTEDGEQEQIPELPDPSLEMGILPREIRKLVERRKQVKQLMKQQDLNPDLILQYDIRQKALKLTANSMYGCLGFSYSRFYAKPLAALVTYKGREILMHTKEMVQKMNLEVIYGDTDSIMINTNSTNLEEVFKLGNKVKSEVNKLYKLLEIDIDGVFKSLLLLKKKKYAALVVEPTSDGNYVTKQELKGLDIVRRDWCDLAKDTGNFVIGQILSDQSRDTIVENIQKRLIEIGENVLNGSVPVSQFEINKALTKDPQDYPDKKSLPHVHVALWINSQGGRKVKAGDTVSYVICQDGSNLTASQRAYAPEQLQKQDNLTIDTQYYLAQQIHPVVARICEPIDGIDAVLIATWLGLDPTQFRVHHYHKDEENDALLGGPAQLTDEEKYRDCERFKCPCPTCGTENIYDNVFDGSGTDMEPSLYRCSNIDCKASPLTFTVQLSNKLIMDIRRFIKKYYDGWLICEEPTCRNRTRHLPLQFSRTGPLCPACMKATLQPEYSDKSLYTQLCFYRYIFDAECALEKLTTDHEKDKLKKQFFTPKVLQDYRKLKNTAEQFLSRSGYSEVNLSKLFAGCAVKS
Nature of the assay: […]) in 25 mM HEPES pH 7.2, 150 mM KCl, 1 mM DTT; […].

Assay [4] addresses T1, Truncated human primosome (Pol α: …). Described as above.

T1 sequence (Q14181 149-598, chain 2 of 3): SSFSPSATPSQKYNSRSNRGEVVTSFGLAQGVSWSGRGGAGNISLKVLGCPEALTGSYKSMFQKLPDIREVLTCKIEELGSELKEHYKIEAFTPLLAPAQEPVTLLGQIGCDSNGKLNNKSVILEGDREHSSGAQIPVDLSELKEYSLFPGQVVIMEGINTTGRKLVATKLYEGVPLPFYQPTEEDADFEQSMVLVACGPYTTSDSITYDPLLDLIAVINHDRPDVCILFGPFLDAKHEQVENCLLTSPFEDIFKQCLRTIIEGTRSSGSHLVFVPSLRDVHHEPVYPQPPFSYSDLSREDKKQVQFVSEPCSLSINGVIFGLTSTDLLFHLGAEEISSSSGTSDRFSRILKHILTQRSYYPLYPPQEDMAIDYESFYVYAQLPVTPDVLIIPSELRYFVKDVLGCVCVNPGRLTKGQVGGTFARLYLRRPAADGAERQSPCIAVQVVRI
T1 sequence (P49642 whole entry, chain 3 of 3, the tested form may be a part): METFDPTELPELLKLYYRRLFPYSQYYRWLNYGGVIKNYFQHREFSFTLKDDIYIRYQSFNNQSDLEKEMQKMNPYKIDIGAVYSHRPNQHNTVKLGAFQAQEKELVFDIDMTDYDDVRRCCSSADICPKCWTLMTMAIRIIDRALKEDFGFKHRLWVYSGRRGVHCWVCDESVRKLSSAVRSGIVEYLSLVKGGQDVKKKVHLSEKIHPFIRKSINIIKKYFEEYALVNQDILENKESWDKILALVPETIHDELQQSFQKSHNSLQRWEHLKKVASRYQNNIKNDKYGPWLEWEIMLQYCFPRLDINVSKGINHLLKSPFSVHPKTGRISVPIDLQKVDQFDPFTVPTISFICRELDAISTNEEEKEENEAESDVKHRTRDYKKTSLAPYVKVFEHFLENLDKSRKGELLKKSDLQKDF
T1 sequence (P49643 whole entry, chain 4 of 3, the tested form may be a part): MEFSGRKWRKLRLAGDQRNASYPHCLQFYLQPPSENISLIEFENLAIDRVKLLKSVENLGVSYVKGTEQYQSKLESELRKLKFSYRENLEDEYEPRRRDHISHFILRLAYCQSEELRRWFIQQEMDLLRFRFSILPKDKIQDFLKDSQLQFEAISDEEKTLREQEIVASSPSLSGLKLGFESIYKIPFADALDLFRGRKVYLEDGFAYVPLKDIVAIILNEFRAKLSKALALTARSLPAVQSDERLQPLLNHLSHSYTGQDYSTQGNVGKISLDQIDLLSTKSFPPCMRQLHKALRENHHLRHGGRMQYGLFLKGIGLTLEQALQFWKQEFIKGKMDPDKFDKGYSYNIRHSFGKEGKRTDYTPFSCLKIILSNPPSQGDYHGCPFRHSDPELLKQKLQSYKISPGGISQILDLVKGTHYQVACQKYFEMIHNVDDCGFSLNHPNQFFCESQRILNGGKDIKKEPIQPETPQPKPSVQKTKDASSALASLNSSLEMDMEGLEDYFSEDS
T2 sequence (Q14181 whole entry, chain 2 of 3): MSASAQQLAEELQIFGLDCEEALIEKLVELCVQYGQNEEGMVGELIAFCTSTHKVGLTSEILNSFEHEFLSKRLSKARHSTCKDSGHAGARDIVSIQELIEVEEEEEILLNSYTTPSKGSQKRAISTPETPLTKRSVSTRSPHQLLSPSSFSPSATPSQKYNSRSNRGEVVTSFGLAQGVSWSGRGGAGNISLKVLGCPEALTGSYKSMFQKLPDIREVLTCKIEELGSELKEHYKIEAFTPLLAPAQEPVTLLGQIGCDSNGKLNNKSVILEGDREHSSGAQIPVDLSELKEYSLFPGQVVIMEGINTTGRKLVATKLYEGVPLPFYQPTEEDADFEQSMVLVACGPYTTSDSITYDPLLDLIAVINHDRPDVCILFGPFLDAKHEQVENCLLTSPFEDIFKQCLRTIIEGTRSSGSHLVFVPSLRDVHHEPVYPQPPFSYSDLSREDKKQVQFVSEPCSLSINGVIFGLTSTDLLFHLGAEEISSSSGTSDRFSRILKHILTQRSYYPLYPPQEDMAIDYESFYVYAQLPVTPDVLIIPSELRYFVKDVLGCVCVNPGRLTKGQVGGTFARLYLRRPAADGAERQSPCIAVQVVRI
T2 sequence (P49642 whole entry, chain 3 of 3): as the sequence (P49642 whole entry, chain 3 of 3, the tested form may be a part) above
T2 sequence (P49643 whole entry, chain 4 of 3): as the sequence (P49643 whole entry, chain 4 of 3, the tested form may be a part) above

B1: SARS-CoV-2 nsp1 middle domain (13-127), His6-MBP fusion (domain or fragment)
chain: HVQLSLPVLQVRDVLVRGFGDSVEEVLSEARQHLKDGTCGLVEVEKGVLPQLEQPYVFIKRSDARTAPHGHVMVELVAELEGIQYGRSGETLGVLVPHVGEIPVAYRKVLLRKNG
As to B1, the binding result in assay [1] is given as “binds”.

B2: MBP-tagged SARS-CoV nsp1 (full-length, His6-MBP fusion) (natural protein)
chain: MESLVLGVNEKTHVQLSLPVLQVRDVLVRGFGDSVEEALSEAREHLKNGTCGLVELEKGVLPQLEQPYVFIKRSDALSTNHGHKVVELVAEMDGIQYGRSGITLGVLVPHVGETPIAYRNVLLRKNGNKGAGGHSYGIDLKSYDLGDELGTDPIEDYEQNWNTKHGSGALRELTRELNGG
As for B2, the binding result in assay [2] and in assay [1] was “binds” throughout.

B3: SARS-CoV nsp1 (13-127), His6-MBP tag cleaved (domain or fragment)
chain: HVQLSLPVLQVRDVLVRGFGDSVEEALSEAREHLKNGTCGLVELEKGVLPQLEQPYVFIKRSDALSTNHGHKVVELVAEMDGIQYGRSGITLGVLVPHVGETPIAYRNVLLRKNG
Consider B3, for which the binding result in assay [3] and in assay [4] was “binds” throughout.

B4: SARS-CoV nsp1 middle domain (13-127), His6-MBP fusion (domain or fragment)
chain: HVQLSLPVLQVRDVLVRGFGDSVEEALSEAREHLKNGTCGLVELEKGVLPQLEQPYVFIKRSDALSTNHGHKVVELVAEMDGIQYGRSGITLGVLVPHVGETPIAYRNVLLRKNG
As to B4, the binding result in assay [1] was “binds”.
